For orientation: Kd means a measure of binding affinity in units of concentration.

The assay deals with T1, GST-SVIP (Drosophila SVIP, CG32039), Q8IQC6.
T1 chain: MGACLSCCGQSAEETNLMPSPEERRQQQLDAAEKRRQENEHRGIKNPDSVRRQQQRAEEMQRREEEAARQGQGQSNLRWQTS
In words: in vitro binding titration assay. The settings on record: chain shown with the change;; parent: 0.70 uM.

B1: MBP-VCP^N-D1 (Drosophila VCP, N-terminal and first D1 ATPase domain), Q7KN62 P134L (protein)
chain: MADSKGEDLATAILKRKDRPNRLIVEEAQNDDNSVVSLSQAKMDELQLFRGDTVILKGKRRKETVCIVLSDDTCPDEKIRMNRVVRNNLCVHLSDVVSVQSCPDVKYGKRVRILPIDESTEGVTGNLFEIYLKLYFLEAYRPIHMGDNFIVRAAMRPIEFKVVLTDPEPYCIVAPETVIFCDGDPIKREEEEESLNAVGYDDIGGCRKQLAQIKEMVELPLRHPSLFKAIGVKPPRGILMYGPPGTGKTLIARAVANETGAFFFLINGPEIMSKLAGESESNLRKAFEEAEKNSPAIIFIDEIDAIAPKRDKTHGEVERRIVSQLLTLMDGMKKSSHLIVMAATNRPNSIDPALRRFGRFDREIDIGIPDATGRLEVLRIHTKNMKLHDDVDLEQIAAESHGHVGADLASLCSEAALQQIREKMDLIDLEDDKIDAEVLASLAVTMENFRYAMTKSSPSALRETVVEVPNTTWTDIGGLESVKKELQELVQYPVEHPDKFLKFGMQPSRGVLFYGPPGCGKTLLAKAIANECQANFISVKGPELLTMWFGESEANVRDIFDKARSAAPCVLFFDELDSIAKARGGNVGDAGGAADRVINQILTEMDGMGAKKNVFIIGATNRPDIIDPAILRPGRLDQLIYIPLPDDKSREAILKANLRKSPLAKEVDLTYIAKVTQGFSGADLTEICQRACKLAIRQAIEAEIRREKERAENQNSAMDMDEDDPVPEITSAHFEEAMKFARRSVSDNDIRKYEMFAQTLQQSRGFGQNFRFPGQTGNTSGSGNNLPVNSPGDNGDDDLYS
In the case of B1, the Kd worked out at 21.6 µM.

B2: MBP-VCP^N-D1 (Drosophila VCP, N-terminal and first D1 ATPase domain), Q7KN62 A154R (protein)
chain: MADSKGEDLATAILKRKDRPNRLIVEEAQNDDNSVVSLSQAKMDELQLFRGDTVILKGKRRKETVCIVLSDDTCPDEKIRMNRVVRNNLCVHLSDVVSVQSCPDVKYGKRVRILPIDESTEGVTGNLFEIYLKPYFLEAYRPIHMGDNFIVRARMRPIEFKVVLTDPEPYCIVAPETVIFCDGDPIKREEEEESLNAVGYDDIGGCRKQLAQIKEMVELPLRHPSLFKAIGVKPPRGILMYGPPGTGKTLIARAVANETGAFFFLINGPEIMSKLAGESESNLRKAFEEAEKNSPAIIFIDEIDAIAPKRDKTHGEVERRIVSQLLTLMDGMKKSSHLIVMAATNRPNSIDPALRRFGRFDREIDIGIPDATGRLEVLRIHTKNMKLHDDVDLEQIAAESHGHVGADLASLCSEAALQQIREKMDLIDLEDDKIDAEVLASLAVTMENFRYAMTKSSPSALRETVVEVPNTTWTDIGGLESVKKELQELVQYPVEHPDKFLKFGMQPSRGVLFYGPPGCGKTLLAKAIANECQANFISVKGPELLTMWFGESEANVRDIFDKARSAAPCVLFFDELDSIAKARGGNVGDAGGAADRVINQILTEMDGMGAKKNVFIIGATNRPDIIDPAILRPGRLDQLIYIPLPDDKSREAILKANLRKSPLAKEVDLTYIAKVTQGFSGADLTEICQRACKLAIRQAIEAEIRREKERAENQNSAMDMDEDDPVPEITSAHFEEAMKFARRSVSDNDIRKYEMFAQTLQQSRGFGQNFRFPGQTGNTSGSGNNLPVNSPGDNGDDDLYS
Consider B2, for which the Kd was 3.61 µM.

B3: MBP-VCP^N-D1 (Drosophila VCP, N-terminal and first D1 ATPase domain), Q7KN62 A436S (protein)
chain: MADSKGEDLATAILKRKDRPNRLIVEEAQNDDNSVVSLSQAKMDELQLFRGDTVILKGKRRKETVCIVLSDDTCPDEKIRMNRVVRNNLCVHLSDVVSVQSCPDVKYGKRVRILPIDESTEGVTGNLFEIYLKPYFLEAYRPIHMGDNFIVRAAMRPIEFKVVLTDPEPYCIVAPETVIFCDGDPIKREEEEESLNAVGYDDIGGCRKQLAQIKEMVELPLRHPSLFKAIGVKPPRGILMYGPPGTGKTLIARAVANETGAFFFLINGPEIMSKLAGESESNLRKAFEEAEKNSPAIIFIDEIDAIAPKRDKTHGEVERRIVSQLLTLMDGMKKSSHLIVMAATNRPNSIDPALRRFGRFDREIDIGIPDATGRLEVLRIHTKNMKLHDDVDLEQIAAESHGHVGADLASLCSEAALQQIREKMDLIDLEDDKIDSEVLASLAVTMENFRYAMTKSSPSALRETVVEVPNTTWTDIGGLESVKKELQELVQYPVEHPDKFLKFGMQPSRGVLFYGPPGCGKTLLAKAIANECQANFISVKGPELLTMWFGESEANVRDIFDKARSAAPCVLFFDELDSIAKARGGNVGDAGGAADRVINQILTEMDGMGAKKNVFIIGATNRPDIIDPAILRPGRLDQLIYIPLPDDKSREAILKANLRKSPLAKEVDLTYIAKVTQGFSGADLTEICQRACKLAIRQAIEAEIRREKERAENQNSAMDMDEDDPVPEITSAHFEEAMKFARRSVSDNDIRKYEMFAQTLQQSRGFGQNFRFPGQTGNTSGSGNNLPVNSPGDNGDDDLYS
For the molecule B3, the dissociation constant (Kd) is 0.6 µM.

B4: MBP-VCP^N-D1 (Drosophila VCP, N-terminal and first D1 ATPase domain), Q7KN62 N384H (protein)
chain: MADSKGEDLATAILKRKDRPNRLIVEEAQNDDNSVVSLSQAKMDELQLFRGDTVILKGKRRKETVCIVLSDDTCPDEKIRMNRVVRNNLCVHLSDVVSVQSCPDVKYGKRVRILPIDESTEGVTGNLFEIYLKPYFLEAYRPIHMGDNFIVRAAMRPIEFKVVLTDPEPYCIVAPETVIFCDGDPIKREEEEESLNAVGYDDIGGCRKQLAQIKEMVELPLRHPSLFKAIGVKPPRGILMYGPPGTGKTLIARAVANETGAFFFLINGPEIMSKLAGESESNLRKAFEEAEKNSPAIIFIDEIDAIAPKRDKTHGEVERRIVSQLLTLMDGMKKSSHLIVMAATNRPNSIDPALRRFGRFDREIDIGIPDATGRLEVLRIHTKHMKLHDDVDLEQIAAESHGHVGADLASLCSEAALQQIREKMDLIDLEDDKIDAEVLASLAVTMENFRYAMTKSSPSALRETVVEVPNTTWTDIGGLESVKKELQELVQYPVEHPDKFLKFGMQPSRGVLFYGPPGCGKTLLAKAIANECQANFISVKGPELLTMWFGESEANVRDIFDKARSAAPCVLFFDELDSIAKARGGNVGDAGGAADRVINQILTEMDGMGAKKNVFIIGATNRPDIIDPAILRPGRLDQLIYIPLPDDKSREAILKANLRKSPLAKEVDLTYIAKVTQGFSGADLTEICQRACKLAIRQAIEAEIRREKERAENQNSAMDMDEDDPVPEITSAHFEEAMKFARRSVSDNDIRKYEMFAQTLQQSRGFGQNFRFPGQTGNTSGSGNNLPVNSPGDNGDDDLYS
Take B4: the Kd is 1.16 µM.

B5: MBP-VCP^N-D1 (Drosophila VCP, N-terminal and first D1 ATPase domain), Q7KN62 R156C (protein)
chain: MADSKGEDLATAILKRKDRPNRLIVEEAQNDDNSVVSLSQAKMDELQLFRGDTVILKGKRRKETVCIVLSDDTCPDEKIRMNRVVRNNLCVHLSDVVSVQSCPDVKYGKRVRILPIDESTEGVTGNLFEIYLKPYFLEAYRPIHMGDNFIVRAAMCPIEFKVVLTDPEPYCIVAPETVIFCDGDPIKREEEEESLNAVGYDDIGGCRKQLAQIKEMVELPLRHPSLFKAIGVKPPRGILMYGPPGTGKTLIARAVANETGAFFFLINGPEIMSKLAGESESNLRKAFEEAEKNSPAIIFIDEIDAIAPKRDKTHGEVERRIVSQLLTLMDGMKKSSHLIVMAATNRPNSIDPALRRFGRFDREIDIGIPDATGRLEVLRIHTKNMKLHDDVDLEQIAAESHGHVGADLASLCSEAALQQIREKMDLIDLEDDKIDAEVLASLAVTMENFRYAMTKSSPSALRETVVEVPNTTWTDIGGLESVKKELQELVQYPVEHPDKFLKFGMQPSRGVLFYGPPGCGKTLLAKAIANECQANFISVKGPELLTMWFGESEANVRDIFDKARSAAPCVLFFDELDSIAKARGGNVGDAGGAADRVINQILTEMDGMGAKKNVFIIGATNRPDIIDPAILRPGRLDQLIYIPLPDDKSREAILKANLRKSPLAKEVDLTYIAKVTQGFSGADLTEICQRACKLAIRQAIEAEIRREKERAENQNSAMDMDEDDPVPEITSAHFEEAMKFARRSVSDNDIRKYEMFAQTLQQSRGFGQNFRFPGQTGNTSGSGNNLPVNSPGDNGDDDLYS
B5: the Kd came to 1.77 µM.

B6: MBP-VCP^N-D1 (Drosophila VCP, N-terminal and first D1 ATPase domain), Q7KN62 L195W (protein)
chain: MADSKGEDLATAILKRKDRPNRLIVEEAQNDDNSVVSLSQAKMDELQLFRGDTVILKGKRRKETVCIVLSDDTCPDEKIRMNRVVRNNLCVHLSDVVSVQSCPDVKYGKRVRILPIDESTEGVTGNLFEIYLKPYFLEAYRPIHMGDNFIVRAAMRPIEFKVVLTDPEPYCIVAPETVIFCDGDPIKREEEEESWNAVGYDDIGGCRKQLAQIKEMVELPLRHPSLFKAIGVKPPRGILMYGPPGTGKTLIARAVANETGAFFFLINGPEIMSKLAGESESNLRKAFEEAEKNSPAIIFIDEIDAIAPKRDKTHGEVERRIVSQLLTLMDGMKKSSHLIVMAATNRPNSIDPALRRFGRFDREIDIGIPDATGRLEVLRIHTKNMKLHDDVDLEQIAAESHGHVGADLASLCSEAALQQIREKMDLIDLEDDKIDAEVLASLAVTMENFRYAMTKSSPSALRETVVEVPNTTWTDIGGLESVKKELQELVQYPVEHPDKFLKFGMQPSRGVLFYGPPGCGKTLLAKAIANECQANFISVKGPELLTMWFGESEANVRDIFDKARSAAPCVLFFDELDSIAKARGGNVGDAGGAADRVINQILTEMDGMGAKKNVFIIGATNRPDIIDPAILRPGRLDQLIYIPLPDDKSREAILKANLRKSPLAKEVDLTYIAKVTQGFSGADLTEICQRACKLAIRQAIEAEIRREKERAENQNSAMDMDEDDPVPEITSAHFEEAMKFARRSVSDNDIRKYEMFAQTLQQSRGFGQNFRFPGQTGNTSGSGNNLPVNSPGDNGDDDLYS
Turning to B6, the Kd is 0.6 µM.

B7: MBP-VCP^N-D1 (Drosophila VCP, N-terminal and first D1 ATPase domain), Q7KN62 R188Q (protein)
chain: MADSKGEDLATAILKRKDRPNRLIVEEAQNDDNSVVSLSQAKMDELQLFRGDTVILKGKRRKETVCIVLSDDTCPDEKIRMNRVVRNNLCVHLSDVVSVQSCPDVKYGKRVRILPIDESTEGVTGNLFEIYLKPYFLEAYRPIHMGDNFIVRAAMRPIEFKVVLTDPEPYCIVAPETVIFCDGDPIKQEEEEESLNAVGYDDIGGCRKQLAQIKEMVELPLRHPSLFKAIGVKPPRGILMYGPPGTGKTLIARAVANETGAFFFLINGPEIMSKLAGESESNLRKAFEEAEKNSPAIIFIDEIDAIAPKRDKTHGEVERRIVSQLLTLMDGMKKSSHLIVMAATNRPNSIDPALRRFGRFDREIDIGIPDATGRLEVLRIHTKNMKLHDDVDLEQIAAESHGHVGADLASLCSEAALQQIREKMDLIDLEDDKIDAEVLASLAVTMENFRYAMTKSSPSALRETVVEVPNTTWTDIGGLESVKKELQELVQYPVEHPDKFLKFGMQPSRGVLFYGPPGCGKTLLAKAIANECQANFISVKGPELLTMWFGESEANVRDIFDKARSAAPCVLFFDELDSIAKARGGNVGDAGGAADRVINQILTEMDGMGAKKNVFIIGATNRPDIIDPAILRPGRLDQLIYIPLPDDKSREAILKANLRKSPLAKEVDLTYIAKVTQGFSGADLTEICQRACKLAIRQAIEAEIRREKERAENQNSAMDMDEDDPVPEITSAHFEEAMKFARRSVSDNDIRKYEMFAQTLQQSRGFGQNFRFPGQTGNTSGSGNNLPVNSPGDNGDDDLYS
For B7, the Kd was determined as 1.5 µM.

(Values after article PMC7820495.)
